The record followed here is patent publication US20250084158A1.

The target in experiment [1] is human CLL-1 on cells (human) (UniProt Q5QGZ9). Put plainly: cell-based or functional assay.
Experiment [2] has the same target. Put plainly: FACS (PE-anti-human IgG), U937 cells.
The target is the same in experiment [3]. Description: FACS (PE-anti-human IgG), HL-60 cells.

Chain of human CLL-1 on cells (human) (Q5QGZ9 whole entry): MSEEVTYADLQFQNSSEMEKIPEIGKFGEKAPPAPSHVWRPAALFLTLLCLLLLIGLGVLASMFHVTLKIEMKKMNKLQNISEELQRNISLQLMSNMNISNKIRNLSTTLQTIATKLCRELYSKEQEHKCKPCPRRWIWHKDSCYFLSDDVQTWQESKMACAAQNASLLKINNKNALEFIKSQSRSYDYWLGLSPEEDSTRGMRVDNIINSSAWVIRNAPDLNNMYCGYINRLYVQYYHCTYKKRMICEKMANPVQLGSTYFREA

Usually EC50 stands for the concentration at which the effect is half-maximal. A low value points to a more potent agent. With MCLA-117 (bispecific antibody), in experiment [1], the CD25 on CD4 T cells, HL60 targets, EC50 came to 7.12 nM; the CD25 on CD4 T cells, U937 targets, EC50 is 2.53 nM; the CD25 on CD8 T cells, HL60 targets, EC50 was 7.68 nM; the CD25 on CD8 T cells, U937 targets, EC50 is 2.88 nM. Moreover, in experiment [1], the CD69 on CD4 T cells, HL60 targets, EC50 came to 2.33 nM; the CD69 on CD4 T cells, U937 targets, EC50 amounted to 1.19 nM; the CD69 on CD8 T cells, HL60 targets, EC50 is 2.89 nM; the CD69 on CD8 T cells, U937 targets, EC50 was 0.713 nM. In experiment [1], this substance displayed a U937 cell lysis, EC50 of 0.128 nM. The same substance yielded a half-maximal effective concentration (EC50) in experiment [2] of 4.53 nM. This substance also returned an EC50 in experiment [3] of 35.1 nM.
